Measured values reported in PMC9287727, “Structural snapshots of nitrosoglutathione binding and reactivity underlying S-nitrosylation of photosynthetic GAPDH” (Redox Biology, 2022).

Legend:
[1] = target: the molecule itself; assay: crystal structure; CrGAPA with 1 mM NADP+ or NAD+, hanging drop at 293 K, 1.2-1.6 M (NH4)2SO4, 0.1 M Tris-HCl pH 7.5-8.5; dimer in the asymmetric unit, tetramer by a crystallographic 2-fold axis
[2] = target: the molecule itself; assay: crystal structure; oxidized NADP+-CrGapA, hanging drop at 293 K, 1.2-1.6 M (NH4)2SO4, 0.1 M Bicine pH 9.5; dimer in the asymmetric unit, tetramer by a crystallographic 2-fold axis

Row | Protein | stoichiometry N [1] | stoichiometry N [2]
1 | photosynthetic glyceraldehyde-3-phosphate dehydrogenase from Chlamydomonas reinhardtii (CrGAPA) (enzyme, UniProt P50362 35-374, looked up, Glyceraldehyde-3-phosphate dehydrogenase A, chloroplastic (GAPA), Chlamydomonas reinhardtii; mature protein; Homotetramer of A-type subunits; also called NADP-CrGAPA; NAD-CrGAPA) EKKIRVAINGFGRIGRNFLRCWHGRQNTLLDVVAINDSGGVKQASHLLKYDSTLGTFAADVKIVDDSHISVDGKQIKIVSSRDPLQLPWKEMNIDLVIEGTGVFIDKVGAGKHIQAGASKVLITAPAKDKDIPTFVVGVNEGDYKHEYPIISNASCTTNCLAPFVKVLEQKFGIVKGTMTTTHSYTGDQRLLDASHRDLRRARAAALNIVPTTTGAAKAVSLVLPSLKGKLNGIALRVPTPTVSVVDLVVQVEKKTFAEEVNAAFREAANGPMKGVLHVEDAPLVSIDFKCTDQSTSIDASLTMVMGDDMVKVVAWYDNEWGYSQRVVDLAEVTAKKWVA | 4 | 
2 | oxidized NADP+-CrGAPA (catalytic Cys149 oxidized to sulphinate/sulphonate) (enzyme, Chlamydomonas reinhardtii, UniProt P50362 35-374, looked up, Cys149 oxidized to sulphinate/sulphonate (-SO2-/-SO3-), Glyceraldehyde-3-phosphate dehydrogenase A, chloroplastic (GAPA), Chlamydomonas reinhardtii; mature protein; Same construct as m1; Cys149 found oxidized in crystals grown in 0.1 M Bicine pH 9.5 with NADP+) EKKIRVAINGFGRIGRNFLRCWHGRQNTLLDVVAINDSGGVKQASHLLKYDSTLGTFAADVKIVDDSHISVDGKQIKIVSSRDPLQLPWKEMNIDLVIEGTGVFIDKVGAGKHIQAGASKVLITAPAKDKDIPTFVVGVNEGDYKHEYPIISNASCTTNCLAPFVKVLEQKFGIVKGTMTTTHSYTGDQRLLDASHRDLRRARAAALNIVPTTTGAAKAVSLVLPSLKGKLNGIALRVPTPTVSVVDLVVQVEKKTFAEEVNAAFREAANGPMKGVLHVEDAPLVSIDFKCTDQSTSIDASLTMVMGDDMVKVVAWYDNEWGYSQRVVDLAEVTAKKWVA |  | 4
